± gives the standard error.
B1: library; numbered along this chain (parent)
chain: MATDAALRRLLRLHRTEIAVAVDSAFPLLHALADHDVVPEDKFQETLHLKEKEGCPQAFHALLSWLLTQDSTAILDFWRVLFKDYNLERYGRLQPILDSFPKDVDLSQPRKGRKPPAVPKALVPPPRLPTKRKASEEARAAAPAALTPRGTASPGSQLKAKPPKKPESSAEQQRLPLGNGIQTMSASVQRAVAMSSGDVPGARGAVEGILIQQVFESGGSKKCIQVGGEFYTPSKFEDSGSGKNKARSSSGPKPLVRAKGAQGAAPGGGEARLGQQGSVPAPLALPSDPQLHQKNEDECAVCRDGGELICCDGCPRAFHLACLSPPLREIPSGTWRCSSCLQATVQEVQPRAEEPRPQEPPVETPLPPGLRSAGEEVRGPPGEPLAGMDTTLVYKHLPAPPSAAPLPGLDSSALHPLLCVGPEGQQNLAPGARCGVCGDGTDVLRCTHCAAAFHWRCHFPAGTSRPGTGLRCRSCSGDVTPAPVEGVLAPSPARLAPGPAKDDTASHEPALHRDDLESLLSEHTFDGILQWAIQSMARPAAPFPS

Variants of: B1
Assay: AIRE transcriptional activation functional score (insulin promoter-GFP; nonsense median 0, synonymous median 1) (normalised score); higher = higher AIRE activity (more reporter activation)
Conditions: with insulin promoter-GFP reporter in HEK293
Outline: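 Codon-optimized AIRE NNN-codon libraries (three regions) were integrated by Bxb1 recombinase into Flp-In T-REx HEK293 landing-pad cells carrying an insulin core promoter-GFP reporter. Integrants (mCherry+, BFP−) sorted at day 7 were expanded 7 days; top 10% GFP and unselected integrant populations were tile-sequenced. Functional score is select versus non-select variant enrichment, wild-type subtracted. Variants needed 10 counts per million in non-select; scores were rescaled to nonsense median 0 and synonymous median 1, then averaged over biological replicates.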

AIRE transcriptional activation functional score: each site, then its substitutions
V393: G 1.28 ± 0.04; M 0.98 ± 0.089; W 1.67 ± 0.17; S 0.746 ± 0.3; Y 0.561 ± 0.21; L 1.2 ± 0.14; R 0.0991 ± 0.16; A 1.04 ± 0.068; E 0.991 ± 0.2; P 0.254 ± 0.38; T 1.14 ± 0.18; Q -0.242 ± 0.092; N 1.09 ± 0.029; D 0.48 ± 0.17; C 1.11 ± 0.028
G382: P 0.74 ± 0.23; T 0.841 ± 0.25; L 0.669 ± 0.41; I 0.702 ± 0.21; S 0.979 ± 0.19; N 0.95 ± 0.35; D 0.898 ± 0.093; E 1.19 ± 0.15; A 0.906 ± 0.34; C 0.802 ± 0.23; V 1.22 ± 0.18; H 1.29 ± 0.5; Q 1.24 ± 0.18; Y 1.13 ± 0.097; K 0.449 ± 0.17; R 1.03 ± 0.32; F 1.11 ± 0.087; W 1.38 ± 0.038
E383: A 1.32 ± 0.086; Y 1.27 ± 0.42; W 0.951 ± 0.11; C 1.18 ± 0.1; D 0.97 ± 0.076; M 0.564 ± 0.24; G 1.09 ± 0.19; Q 0.74 ± 0.27; V 1.13 ± 0.23; L 1.22 ± 0.32; H 0.859 ± 0.16; P 0.887 ± 0.35; F 1.58 ± 0.17; S 1.01 ± 0.25; T 1.49 ± 0.074; I 0.922 ± 0.27; R 1.05 ± 0.17; K 0.473 ± 0.18
L397: A 0.914 ± 0.26; D 0.808 ± 0.1; C 0.827 ± 0.18; E 0.622 ± 0.073
T390: I 0.876 ± 0.28; W 1.51 ± 0.07; R 1.02 ± 0.31; Y 1.62 ± 0.034; V 1.25 ± 0.15; E -0.73 ± 0.36; G 1.17 ± 0.082; A 0.741 ± 0.31; K 1.1 ± 0.15; Q 0.868 ± 0.086; C 0.472 ± 0.29; S 0.817 ± 0.33; P 0.842 ± 0.15; L 1.23 ± 0.45; F 1.29 ± 0.24; N 1.09 ± 0.16; D 0.833 ± 0.089
A386: I 0.514 ± 0.21; C 0.57 ± 0.17; R 1.1 ± 0.29; D 0.793 ± 0.33; N 0.757 ± 0.088; F 1.74 ± 0.057; K 1.1 ± 0.1; W 1.47 ± 0.048; G 0.732 ± 0.35; Y 1.55 ± 0.17; H 1.44 ± 0.055; T 1.02 ± 0.21; L 1.36 ± 0.11; E 1.21 ± 0.083; S 0.756 ± 0.27; P 0.921 ± 0.3; V 0.968 ± 0.33; Q 0.654 ± 0.073; M 1.53 ± 0.057
H396: Q 1.12 ± 0.14; W 1.28 ± 0.058; Y 1.44 ± 0.066; E -0.185 ± 0.093; I 1.17 ± 0.26; T 0.549 ± 0.24; R 1.03 ± 0.087; D 0.156 ± 0.53; C 1.33 ± 0.047; G 0.899 ± 0.12; N 1.09 ± 0.083; V 1.25 ± 0.42; L 1.69 ± 0.1; F 1.15 ± 0.14; P 1.02 ± 0.38; A 0.663 ± 0.22; K 1.61 ± 0.096; S 0.606 ± 0.35
P380: M 1.34 ± 0.077; C 0.499 ± 0.43; Y 1.42 ± 0.14; V 0.912 ± 0.15; I 1.14 ± 0.28; L 0.882 ± 0.31; Q 1.16 ± 0.17; E 0.934 ± 0.17; K 0.944 ± 0.23; N 1.52 ± 0.1; D 0.476 ± 0.062; T 1.45 ± 0.17; S 0.998 ± 0.29; G 0.801 ± 0.37; F 0.369 ± 0.28; A 0.626 ± 0.18; W 1.39 ± 0.063; R 0.936 ± 0.28; H 0.534 ± 0.15
P381: D 0.696 ± 0.43; I 0.705 ± 0.26; Y 1.39 ± 0.44; A 0.912 ± 0.28; V 1.15 ± 0.14; G 1.11 ± 0.23; N 1.07 ± 0.078; K 1.04 ± 0.072; Q 1.35 ± 0.12; F 1.15 ± 0.23; M 1.06 ± 0.044; T 0.929 ± 0.28; W 0.42 ± 0.044; H 1.03 ± 0.21; S 0.87 ± 0.25; E 1.26 ± 0.45; L 1.13 ± 0.21; R 1.25 ± 0.12; C 0.894 ± 0.15
L392: E 0.303 ± 0.068; M 0.734 ± 0.13; K 1.14 ± 0.08; G 0.912 ± 0.32; I 1.7 ± 0.47; P 0.582 ± 0.24; W 1.22 ± 0.14; H 0.636 ± 0.29; S 1.43 ± 0.11; T 0.53 ± 0.1; A 0.196 ± 0.14; Q 1.18 ± 0.099; V 1.36 ± 0.28; N 0.909 ± 0.1; R 1.06 ± 0.21; F 1.15 ± 0.14
Y394: H 0.428 ± 0.44; A 0.692 ± 0.2; P 1.43 ± 0.084; G 0.882 ± 0.15

Source: the supplement of paper PMC12667976
